System: T1, O=C1O[C@H]([C@@H](O)CO)C(O)=C1O
T1 construct: expressed in transfected cells; host or cells: HEK-TREx cells, tetracycline-induced
Assay: hSVCT2 direct uptake assay in HEK-TREx-hSVCT2 cells (LC-MS-MS)
Type: cell-based, human
Conditions: other: HEK-TREx-hSVCT2 cells induced to express hSVCT2
Experimental: A modified direct uptake assay was developed to determine the ability of test compounds to be transported into HEK-TREx cells induced to over-express hSVCT2. Four concentrations (bracketing the affinity as measured by competition assays) per compound were routinely tested. Non-specific uptake was determined by measuring the uptake into cells not induced to express the transporter (“no tet”).
The direct uptake assays were prepared as follows: Compounds were prepared for assay by diluting a 100 mM stock concentration (in DMSO or water, depending on compound solubility) to the appropriate working concentration. Typically, four concentrations bracketing the IC50 were tested. The highest test concentration for each compound was made in an Eppendorf tube and diluted into HBSS. The samples were robustly vortexed and centrifuged for 10 minutes at 13,200 rpm to spin down any precipitate. The supernatant from these samples (˜150 μl/well) was carefully removed and placed into six wells of row A (cmpd 1: A1-6; cmpd 2: A7-12) or row E (cmpd 3: E1-6; cmpd 4: E7-12) of a 96-well polypropylene “compound” plate. Three additional 2-fold dilutions were made in the subsequent rows (B-D or […]) in HBSS. […]

Substance: hSVCT2 (Homo sapiens)
- Km: 14 µM
